In publication PMC2532717 (Nucleic Acids Research, 2008):

Molecular target: the molecule itself
Assay: cross-linking

| Protein | stoichiometry N | binding result |
| --- | --- | --- |
| RecUK56A (enzyme, B. subtilis) MIRYPNGKTFQPKHSVSSQNSQKRAPSYSNRGMTLEDDLNETNKYYLTNQIAVIHAKPTPVQIVNVHYPKRSAAVIKEAYFKQSSTTDYNGIYKGRYIDFEAKETKNKTSFPLQNFHDHQIEHMKQVKAQDGICFVIISAFDQVYFLEADKLFYFWDRKEKNGRKSIRKDELEETAYPISLGYAPRIDYISIIEQLYFSPSSGAKG | 2 |  |
| RecUR71A (enzyme, B. subtilis) MIRYPNGKTFQPKHSVSSQNSQKRAPSYSNRGMTLEDDLNETNKYYLTNQIAVIHKKPTPVQIVNVHYPKASAAVIKEAYFKQSSTTDYNGIYKGRYIDFEAKETKNKTSFPLQNFHDHQIEHMKQVKAQDGICFVIISAFDQVYFLEADKLFYFWDRKEKNGRKSIRKDELEETAYPISLGYAPRIDYISIIEQLYFSPSSGAKG | 2 |  |
| RecA (natural protein, B. subtilis, UniProt P16971 1-348, looked up) MSDRQAALDMALKQIEKQFGKGSIMKLGEKTDTRISTVPSGSLALDTALGIGGYPRGRIIEVYGPESSGKTTVALHAIAEVQQQGGQAAFIDAEHALDPVYAQKLGVNIEELLLSQPDTGEQALEIAEALVRSGAVDIVVVDSVAALVPKAEIEGDMGDSHVGLQARLMSQALRKLSGAINKSKTIAIFINQIREKVGVMFGNPETTPGGRALKFYSSVRLEVRRAEQLKQGNDVMGNKTKIKVVKNKVAPPFRTAEVDIMYGEGISKEGEIIDLGTELDIVQKSGSWYSYEEERLGQGRENAKQFLKENKDIMLMIQEQIREHYGLDNNGVVQQQAEETQEELEFEE |  | binds |
